Tests used:
H3K9 core mononucleosome = assay: native gel or EMSA
[1] = biological target: H3Kc9me3 core mononucleosome; assay: native gel or EMSA
[2] = biological target: H3Kc9me3 core mononucleosome; assay: fluorescence polarisation

Suv39/Clr4 (full length wild-type), sequence (O60016 whole entry): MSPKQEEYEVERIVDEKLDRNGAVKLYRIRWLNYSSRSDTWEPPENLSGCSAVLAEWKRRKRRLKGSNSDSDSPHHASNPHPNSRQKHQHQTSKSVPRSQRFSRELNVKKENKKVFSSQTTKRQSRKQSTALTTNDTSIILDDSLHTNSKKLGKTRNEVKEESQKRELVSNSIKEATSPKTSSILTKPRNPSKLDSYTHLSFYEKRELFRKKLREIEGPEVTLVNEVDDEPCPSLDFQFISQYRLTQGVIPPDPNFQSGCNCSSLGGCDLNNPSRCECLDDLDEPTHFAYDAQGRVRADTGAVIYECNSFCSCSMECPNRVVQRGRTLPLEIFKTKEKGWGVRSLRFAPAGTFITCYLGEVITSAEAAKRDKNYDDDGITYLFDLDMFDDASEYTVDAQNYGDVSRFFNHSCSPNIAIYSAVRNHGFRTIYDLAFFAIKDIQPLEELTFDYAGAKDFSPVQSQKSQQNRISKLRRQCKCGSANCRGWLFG

## Suv39/Clr4 (full length wild-type) (from UniProt O60016 1-490) (enzyme)
H3K9 core mononucleosome
  K1/2: 1.8 µM
[1]
  K1/2: 1.5 µM
[2]
  fold sensitivity of the FP increase to the H3Kc9me3 mark over the H3K9 control: > 25 fold
